We go through 39 sequences from the supplement of paper PMC7877785.

± gives the uncertainty stated by the source.

The series can be described thus: self-splicing fitness, log relative to wild type (ln ratio); higher = more splicing; Tetrahymena group I intron in knt gene, E. coli kanamycin selection, DiMSum; sequences stand for … in CUCUCU…GGAGGGAAAAGUUAUCAGGCAUGCACCUGGUAGCUAGUCUUUAAACCAAUAGAUUGCAUCGGUUUAAAAGGCAAGACCGUCAAAUUGCGGGAAAGGGGUCAACAGCCGUUCAGUACCAAGUCUCAGGGGAAACUUUGAGAUGGCCUUGCAAAGGGUAUGGUAAUAAGCUGACGGACAUGGUCCUAACCACGCAGCCAAGUCCUAAGUCAACAGAUCUUCUGUUGAUAUGGAUGCAGUUCACAGACUAAAUGUCGGUCGGGGAAGAUGUAUUCUUCUCAUAAGAUAUAGUCGGACCUCUCCUUAAUGGGAGCUAGCGGAUGAAGUGAUGCAACACUGGAGCCGCUGGGAACUAAUUUGUAUGCGAAAGUAUAUUGAUUAGUUUUGGAGUACUCGUGGUCG
Put shortly:
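Six replicate transformations of E. coli BL21(DE3) with a pET-22b(+) library were grown overnight at 37°C or 30°C. The library randomised all eight P1ex-region intron nucleotides, the intron lying in the knt kanamycin-resistance gene, and plates were LB agar with or without 25 μg/mL kanamycin plus 100 μg/mL carbenicillin, 50 μM IPTG and 0.2% rhamnose. Pooled colonies were amplicon-sequenced on an Illumina HiSeq 2500, and fitness is the DiMSum error-weighted combination of wild-type-normalised replicate fold changes, kanamycin versus none.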

For GCUCAGCAAUAUUACGUCAU, the “self-splicing fitness (ln)” value (30 °C) is -2.27 ± 0.06 and the “self-splicing fitness (ln)” value (37 °C) is -1.26 ± 0.074.

For the sequence GCUCAGCAAUAUUACGUCUU, the “self-splicing fitness (ln)” value (30 °C) was -0.48 ± 0.054 and the “self-splicing fitness (ln)” value (37 °C) is -0.252 ± 0.066.

Consider GCUGAGCAAUAUUACGACAG, for which the “self-splicing fitness (ln)” value (30 °C) was -1.05 ± 0.31.

As for GCUGAGCAAUAUUACGAGCU, the “self-splicing fitness (ln)” value is, setting by setting: (30 °C) -3.66 ± 0.34; (37 °C) -1.82 ± 0.22.

As to GCUGAGCAAUAUUACGAUAU, the “self-splicing fitness (ln)” value by setting is: (30 °C) -2.62 ± 0.28; (37 °C) -1.08 ± 0.2.

With GCUGAGCAAUAUUACGAUGA, the “self-splicing fitness (ln)” value reads like this: (30 °C) -1.11 ± 0.13; (37 °C) -1.07 ± 0.15.

In the case of GCUGAGCAAUAUUACGCAAG, the “self-splicing fitness (ln)” value was -3.22 ± 0.3 (30 °C) and -2.73 ± 0.44 (37 °C).

Turning to GCUGAGCAAUAUUACGCCGC, where the note is “30 °C”, the “self-splicing fitness (ln)” value was -2.62 ± 0.34.

Turning to GCUGAGCAAUAUUACGCGAA, the “self-splicing fitness (ln)” value (37 °C) is -2.91 ± 0.37.

For the sequence GCUGAGCAAUAUUACGCGAC, the “self-splicing fitness (ln)” value by setting is: (30 °C) -3.36 ± 0.32; (37 °C) -1 ± 0.3.

For GCUGAGCAAUAUUACGCGCA, the “self-splicing fitness (ln)” value (30 °C) was -1.72 ± 0.4.

Regarding GCUGAGCAAUAUUACGCGUU, the “self-splicing fitness (ln)” value was -2.22 ± 0.15 (30 °C) and -1.73 ± 0.22 (37 °C).

Consider GCUGAGCAAUAUUACGGCGA, for which the “self-splicing fitness (ln)” value runs as follows: (30 °C) -1.43 ± 0.16; (37 °C) -1.56 ± 0.2.

In the case of GCUGAGCAAUAUUACGGGAC, the “self-splicing fitness (ln)” value was -1.25 ± 0.13 (30 °C) and -2.16 ± 0.22 (37 °C).

Consider GCUGAGCAAUAUUACGGUGC, for which the “self-splicing fitness (ln)” value reads like this: (30 °C) -3.9 ± 0.3; (37 °C) -1.61 ± 0.22.

As to GCUGAGCAAUAUUACGGUGU, the “self-splicing fitness (ln)” value (30 °C) was -2.14 ± 0.077 and the “self-splicing fitness (ln)” value (37 °C) was -1.8 ± 0.091.

With GCUGAGCAAUAUUACGUAAA, the “self-splicing fitness (ln)” value (30 °C) is -2.97 ± 0.19 and the “self-splicing fitness (ln)” value (37 °C) was -2.31 ± 0.17.

For GCUGAGCAAUAUUACGUAAG, the “self-splicing fitness (ln)” value is -1.55 ± 0.12 (30 °C) and -0.739 ± 0.16 (37 °C).

GCUGAGCAAUAUUACGUAGA: the “self-splicing fitness (ln)” value runs as follows: (30 °C) -2.41 ± 0.2; (37 °C) -0.888 ± 0.21.

Regarding GCUGAGCAAUAUUACGUAUU, the “self-splicing fitness (ln)” value (30 °C) is -4.1 ± 0.28 and the “self-splicing fitness (ln)” value (37 °C) is -2.3 ± 0.22.

GCUGAGCAAUAUUACGUCCC: the “self-splicing fitness (ln)” value is -0.877 ± 0.092 (30 °C) and -0.184 ± 0.11 (37 °C).

As to GCUGAGCAAUAUUACGUCCG, the “self-splicing fitness (ln)” value by setting is: (30 °C) -2.38 ± 0.23; (37 °C) -2.3 ± 0.31.

In the case of GCUGAGCAAUAUUACGUGUC, the “self-splicing fitness (ln)” value by setting is: (30 °C) -2.78 ± 0.18; (37 °C) -1.3 ± 0.16.

Turning to GCUGAGCAAUAUUACGUUGG, the “self-splicing fitness (ln)” value is -2.52 ± 0.26 (30 °C) and -1.9 ± 0.28 (37 °C).

Consider GCUGAGCAAUAUUACGUUUC, for which the “self-splicing fitness (ln)” value reads like this: (30 °C) -1.94 ± 0.18; (37 °C) -1.55 ± 0.2.

Turning to GCUUAGCAAUAUUACGAAGC, the “self-splicing fitness (ln)” value by setting is: (30 °C) -4.18 ± 0.31; (37 °C) -4.66 ± 0.36.

GCUUAGCAAUAUUACGAGAG: the “self-splicing fitness (ln)” value reads like this: (30 °C) -1.52 ± 0.23; (37 °C) -0.67 ± 0.2.

Take GCUUAGCAAUAUUACGAGCG: the “self-splicing fitness (ln)” value is, setting by setting: (30 °C) -2.44 ± 0.26; (37 °C) -1.1 ± 0.16.

As for GCUUAGCAAUAUUACGAUAC, the “self-splicing fitness (ln)” value runs as follows: (30 °C) -1.65 ± 0.2; (37 °C) 0.185 ± 0.23.

Take GCUUAGCAAUAUUACGAUGU: the “self-splicing fitness (ln)” value (30 °C) is -0.306 ± 0.083 and the “self-splicing fitness (ln)” value (37 °C) is -0.00189 ± 0.11.

As for GCUUAGCAAUAUUACGCAAG, where the note is “37 °C”, the “self-splicing fitness (ln)” value is -2.44 ± 0.34.

For the sequence GCUUAGCAAUAUUACGCACG, the “self-splicing fitness (ln)” value is, setting by setting: (30 °C) -2.19 ± 0.092; (37 °C) -0.388 ± 0.1.

Consider GCUUAGCAAUAUUACGCCAC, for which the “self-splicing fitness (ln)” value is -1.67 ± 0.32 (30 °C) and -1.17 ± 0.45 (37 °C).

Turning to GCUUAGCAAUAUUACGCUCU, the “self-splicing fitness (ln)” value runs as follows: (30 °C) -0.864 ± 0.12; (37 °C) -0.504 ± 0.12.

With GCUUAGCAAUAUUACGGACU, the “self-splicing fitness (ln)” value was -0.304 ± 0.085 (30 °C) and 0.4 ± 0.093 (37 °C).

In the case of GCUUAGCAAUAUUACGGCUA, the “self-splicing fitness (ln)” value (30 °C) is -0.299 ± 0.24 and the “self-splicing fitness (ln)” value (37 °C) is -1.61 ± 0.27.

In the case of GCUUAGCAAUAUUACGGGGA, the “self-splicing fitness (ln)” value was -1.05 ± 0.11 (30 °C) and -0.712 ± 0.12 (37 °C).

Turning to GCUUAGCAAUAUUACGGUAC, the “self-splicing fitness (ln)” value by setting is: (30 °C) -1.91 ± 0.14; (37 °C) -0.938 ± 0.19.

With GCUUAGCAAUAUUACGGUCC, the “self-splicing fitness (ln)” value is, setting by setting: (30 °C) -0.86 ± 0.17; (37 °C) 0.242 ± 0.25.
